Here are results for two molecules from paper PMC7367873, “Dissecting the sequence determinants for dephosphorylation by the catalytic subunits of phosphatases PP1 and PP2A” (Nature Communications, 2020).

One assay concerns GFP-14-3-3β. Briefly: GFP-14-3-3β co-IP with LC-MS/MS, untreated GFP-14-3-3β versus GFP control (14-3-3 interactome). Particulars: untreated vs GFP; LFQ intensities, replicates 1-3. Type of assay: binding, human.
The subject of assay [1] is GFP-14-3-3β and its binding proteins. Briefly: GFP-14-3-3β co-IP with LC-MS/MS label-free quantification, untreated versus PP1c-treated. To be noted: PP1 vs untreated; LFQ intensities, replicates 1-3. Also noted: species or system human.

B1: CENPV (protein, UniProt Q7Z7K6 1-275, looked up)
Centromere protein V: MRRSRSSAAAKLRGQKRSGASGASAAPAASAAAALAPSATRTRRSASQAGSKSQAVEKPPSEKPRLRRSSPRAQEEGPGEPPPPELALLPPPPPPPPTPATPTSSASNLDLGEQRERWETFQKRQKLTSEGAAKLLLDTFEYQGLVKHTGGCHCGAVRFEVWASADLHIFDCNCSICKKKQNRHFIVPASRFKLLKGAEHITTYTFNTHKAQHTFCKRCGVQSFYTPRSNPGGFGIAPHCLDEGTVRSMVTEEFNGSDWEKAMKEHKTIKNMSKE
As to B1, in the assay with GFP-14-3-3β, the “Difference (log2), untreated vs GFP” value turned out to be 2.895 log2. Further, in assay [1], the “Difference (log2), PP1 vs untreated” value is -0.9888 log2.

B2: TJP2 (protein, UniProt Q9UDY2 1-1190, looked up)
Tight junction protein 2: MPVRGDRGFPPRRELSGWLRAPGMEELIWEQYTVTLQKDSKRGFGIAVSGGRDNPHFENGETSIVISDVLPGGPADGLLQENDRVVMVNGTPMEDVLHSFAVQQLRKSGKVAAIVVKRPRKVQVAALQASPPLDQDDRAFEVMDEFDGRSFRSGYSERSRLNSHGGRSRSWEDSPERGRPHERARSRERDLSRDRSRGRSLERGLDQDHARTRDRSRGRSLERGLDHDFGPSRDRDRDRSRGRSIDQDYERAYHRAYDPDYERAYSPEYRRGARHDARSRGPRSRSREHPHSRSPSPEPRGRPGPIGVLLMKSRANEEYGLRLGSQIFVKEMTRTGLATKDGNLHEGDIILKINGTVTENMSLTDARKLIEKSRGKLQLVVLRDSQQTLINIPSLNDSDSEIEDISEIESNRSFSPEERRHQYSDYDYHSSSEKLKERPSSREDTPSRLSRMGATPTPFKSTGDIAGTVVPETNKEPRYQEDPPAPQPKAAPRTFLRPSPEDEAIYGPNTKMVRFKKGDSVGLRLAGGNDVGIFVAGIQEGTSAEQEGLQEGDQILKVNTQDFRGLVREDAVLYLLEIPKGEMVTILAQSRADVYRDILACGRGDSFFIRSHFECEKETPQSLAFTRGEVFRVVDTLYDGKLGNWLAVRIGNELEKGLIPNKSRAEQMASVQNAQRDNAGDRADFWRMRGQRSGVKKNLRKSREDLTAVVSVSTKFPAYERVLLREAGFKRPVVLFGPIADIAMEKLANELPDWFQTAKTEPKDAGSEKSTGVVRLNTVRQIIEQDKHALLDVTPKAVDLLNYTQWFPIVIFFNPDSRQGVKTMRQRLNPTSNKSSRKLFDQANKLKKTCAHLFTATINLNSANDSWFGSLKDTIQHQQGEAVWVSEGKMEGMDDDPEDRMSYLTAMGADYLSCDSRLISDFEDTDGEGGAYTDNELDEPAEEPLVSSITRSSEPVQHEESIRKPSPEPRAQMRRAASSDQLRDNSPPPAFKPEPPKAKTQNKEESYDFSKSYEYKSNPSAVAGNETPGASTKGYPPPVAAKPTFGRSILKPSTPIPPQEGEEVGESSEEQDNAPKSVLGKVKIFEKMDHKARLQRMQELQEAQNARIEIAQKHPDIYAVPIKTHKPDPGTPQHTSSRPPEPQKAPSRPYQDTRGSYGSDAEEEEYRQQLSEHSKRGYYGQSARYRDTEL
In the case of B2, the “Difference (log2), untreated vs GFP” value in the assay with GFP-14-3-3β is listed as 5.699 log2. In addition, the “Difference (log2), PP1 vs untreated” value in assay [1] is -0.9629 log2.
